Consider 1 molecule from patent US20200069813A1 (S M DISCOVERY GROUP, published 2020).

Where no end group is shown, it is not given here. 5‑FAM = fluorescein amidite

In assay [1] the target is T1, receptor for advanced glycation end products (RAGE) (human, UniProt Q15109 23-404).
T1 construct: whole, on cells; Endogenous receptor on hCMEC/D3 cells; No purified receptor was used; also called RAGE receptor
Description: Uptake by hCMEC/D3 cells after RAGE siRNA knock-down, FACS and fluorescence microscopy.

The target in assay [2] is T2, transferrin receptor (TFRC) (human, UniProt P02786 1-760).
T2 construct: whole, on cells; Endogenous receptor on hCMEC/D3 cells; No purified receptor was used
T2 sequence (P02786 whole entry): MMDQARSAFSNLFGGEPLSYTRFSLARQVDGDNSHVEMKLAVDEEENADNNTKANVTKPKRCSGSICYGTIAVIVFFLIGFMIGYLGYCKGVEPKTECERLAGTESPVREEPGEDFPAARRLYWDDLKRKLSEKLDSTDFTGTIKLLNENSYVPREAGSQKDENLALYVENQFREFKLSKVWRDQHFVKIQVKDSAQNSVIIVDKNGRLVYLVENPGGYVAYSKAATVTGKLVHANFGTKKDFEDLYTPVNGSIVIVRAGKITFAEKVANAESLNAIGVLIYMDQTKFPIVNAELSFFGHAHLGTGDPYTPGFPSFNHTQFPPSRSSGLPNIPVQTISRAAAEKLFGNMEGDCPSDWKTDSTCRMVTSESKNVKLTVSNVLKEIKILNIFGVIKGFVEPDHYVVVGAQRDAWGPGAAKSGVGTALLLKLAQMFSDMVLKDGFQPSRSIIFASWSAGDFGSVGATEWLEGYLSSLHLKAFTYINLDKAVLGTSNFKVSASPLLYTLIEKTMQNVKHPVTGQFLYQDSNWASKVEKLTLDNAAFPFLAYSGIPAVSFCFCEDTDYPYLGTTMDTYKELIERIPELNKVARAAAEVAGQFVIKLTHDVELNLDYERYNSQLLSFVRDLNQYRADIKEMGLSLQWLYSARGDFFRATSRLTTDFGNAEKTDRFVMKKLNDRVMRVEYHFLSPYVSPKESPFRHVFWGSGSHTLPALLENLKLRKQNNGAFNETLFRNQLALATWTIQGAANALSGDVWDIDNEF
Kind of assay: Uptake by hCMEC/D3 cells after TFRC siRNA knock-down, FACS and fluorescence microscopy. The procedure: Cell nucleus stained with Hoechest 33342, Insert bars=50 μm.
The commercial transfection reagent siPORT Amine/TFRC siRNA complex was incubated for 72 h in hCMEC/D3 cells including an unspecific siRNA (siControl) as control.

T1 sequence (Q15109 23-404): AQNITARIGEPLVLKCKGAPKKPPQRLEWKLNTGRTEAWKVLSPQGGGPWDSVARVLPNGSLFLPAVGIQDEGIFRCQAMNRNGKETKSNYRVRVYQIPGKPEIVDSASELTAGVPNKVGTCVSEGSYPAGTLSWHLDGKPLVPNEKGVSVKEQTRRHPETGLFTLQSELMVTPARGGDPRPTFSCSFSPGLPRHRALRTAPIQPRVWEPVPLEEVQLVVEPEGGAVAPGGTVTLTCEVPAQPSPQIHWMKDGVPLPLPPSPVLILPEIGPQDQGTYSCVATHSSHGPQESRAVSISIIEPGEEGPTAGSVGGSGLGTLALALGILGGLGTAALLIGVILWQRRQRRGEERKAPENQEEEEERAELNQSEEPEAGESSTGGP

B1: FAM-CGY peptide (5-FAM-Cys-Gly-Tyr-Arg-Pro-Val-His-Asn-Ile-Arg-Gly-His-Trp-Ala-Pro-Gly) (peptide)
peptide: {5‑FAM}-CGYRPVHNIRGHWAPG
modifications: also: forms assemblies with intermolecular Cys disulfides
notes: Synthetic peptide conjugate; also called FAM-CGY nanoparticles; FAM-CGY peptidic nanoparticles
With B1, the binding result in assay [1] and in assay [2] was “binds” each time.
